B1: library; numbered along this chain (parent)
chain: MRKPRAAVGSGHRKQAASQEGRQKHAKNNSQAKPSACDGLARQPEEVVLQASVSSYHLFRDVAEVTAFRGSLLSWYDQEKRDLPWRRRAEDEMDLDRRAYAVWVSEVMLQQTQVATVINYYTGWMQKWPTLQDLASASLEEVNQLWAGLGYYSRGRRLQEGARKVVEELGGHMPRTAETLQQLLPGVGRYTAGAIASIAFGQATGVVDGNVARVLCRVRAIGADPSSTLVSQQLWGLAQQLVDPARPGDFNQAAMELGATVCTPQRPLCSQCPVESLCRARQRVEQEQLLASGSLSGSPDVEECAPNTGQCHLCLPPSEPWDQTLGVVNFPRKASRKPPREESSATCVLEQPGALGAQILLVQRPNSGLLAGLWEFPSVTWEPSEQLQRKALLQELQRWAGPLPATHLRHLGEVVHTFSHIKLTYQVYGLALEGQTPVTTVPPGARWLTQEEFHTAAVSTAMKKVFRVYQGQQPGTCMGSKRSQVSSPCSRKKPRMGQQVLDNFFRSHISTDAHSLNSAAQ

Variants of: B1
Assay: 8OG:A repair function score (normalized; synonymous = 0, nonsense = -1) (normalized log-likelihood score); higher = more repair activity (WT-like)
Conditions: with 8OG:A DNA repair reporter (GFP) in HEK-293 MUTYH KO cells
Summary of the method: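 MUTYH knockout HEK-293 cells carrying lentiviral MUTYH cDNA NNN codon-scan libraries were grown with 10 pg/ml doxycycline and co-transfected with mCherry and a GFP reporter of 8OG:A repair. Viable mCherry+ cells were sorted at 72 h into GFP+ (repair) and GFP− bins, with three replicates per tile, and tile amplicons were sequenced. Rosace fitness scores for each tile were turned into a normalized repair function score anchored on the synonymous and nonsense distributions. Synonymous medians were set to 0 and nonsense medians to -1, and variants below 300 counts per million at the start were dropped.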

Variant | 8OG:A repair function score
E92T | -0.112
L109A | 0.00548
A63W | -0.00488
A63D | 0.00576
A135P | -0.477
T176E | -0.128
T176D | 0.00933
T436A | 0.195
P299L | -0.0164
L403T | 0.0396
L403F | 0.0495
L501C | -0.00326
L501Y | -0.0132
Q450N | 0.172
Y56A | -0.0245
E275R | 0.00881
G444R | -0.119
Q499D | -0.0217
T116Y | -0.0318
T116N | -0.15
T116H | 0.0217
G236Q | 0.356
G236V | -0.0226
K422V | -0.231

Variant | 8OG:A repair function score
D224Y | -0.939
Q252P | -1
E452T | 0.0217
R279H | -0.0508
E167D | 0.018
E167K | 0.0784
R154Y | -1.21
Q43F | 0.0374
R217W | -0.993
R336N | -0.101
L83H | -0.597
L83E | -0.902
S344E | -0.0813
M125S | -0.734
P443R | -0.143
L145H | 0.0825
L145K | 0.0459
E141N | 0.127
N119A | 0.121
L349V | -0.0456
Q358L | 0.00809
Q358N | -0.131
Y428S | -0.915
Y428E | -1.1

Variant | 8OG:A repair function score
K164P | -1.12
K164V | 0.027
S153I | -0.105
S153M | -0.237
S153C | -0.074
T417Q | -0.0624
V62K | 0.00655
V62P | 0.00101
G412Q | -0.645
Q113D | -0.327
P339I | -0.0749
Y76A | -1.05
R281A | -0.0465
Q310H | -0.0309
L393P | -0.792
L393Y | -0.503
Q126C | -0.239
A371K | -0.182
K3W | -0.0484
V348K | -1.21
V348M | -0.551
D512G | -0.00398
E46A | 0.0651
E46I | 0.0225

Variant | 8OG:A repair function score
S74E | 0.00141
L432F | -0.116
W399L | 0.1
L408P | -0.461
L408V | -0.347
L408H | -1.11
L408N | -0.893
Q240T | -0.972
V65S | -0.0751
V65M | -0.139
S518T | 0.014
C311I | -0.59
C311R | -0.481
I118C | 0.0146
L215Q | -0.871
L215H | -0.901
E285M | -9.17e-05
E285D | -0.0239
D133E | -0.0313
Q271R | 0.0206
Q271K | 0.0343
S71A | -0.0236
S71P | -0.0398
A254C | -0.0862

Variant | 8OG:A repair function score
A254S | -0.223
N210W | -1.01
N210V | -0.927
N210L | -0.937
W103S | -1.14
S490P | -0.0172
S490T | 0.0117
Q132C | -0.154
Q132L | -0.194
G201L | -0.298
F504G | -0.0353
F504R | -0.00117
F504K | -0.0046
S318Y | -0.0582
V458K | -0.57
V458T | -0.214
V458H | -0.592
V458E | -0.975
E413I | 0.00451
L149Y | -0.657
W374H | -0.924
A115G | -0.0228
A115Q | -0.0206
Q159T | -0.0681

Variant | 8OG:A repair function score
Q159P | -0.377
L448N | -0.42
N503V | -0.0118
I221L | -0.449
K463P | -0.617
K463T | -0.141
R81I | -0.704
A431H | 0.358
S483G | -0.0331
G471M | 0.011
G209N | 0.0546
R506T | 0.0259
A445K | -0.464
A445Y | -0.693
A445P | -0.65
L49I | -0.0224
L387A | -0.21
L423W | -0.0181
I421R | -0.207
I421L | 0.0792
P338L | -0.061
A67L | -0.0838
D91G | -0.00708
L184R | -1.2

Variant | 8OG:A repair function score
L184A | -0.718
S296M | -0.0125
G148L | -1.31
Q239D | 0.103
Q239T | -0.143
Q233K | -0.089
P402I | -0.0565
V284M | -0.00894
R495N | -0.129
E451A | -0.0912
E451H | 0.0926
D300V | -0.0916
D300E | -0.0547
L516A | 0.017
S419K | 0.0315
A6P | -0.0227
S197W | -1.37
T460I | -0.102
R97A | 0.00655
A513Q | 0.0184
W85T | -1.61
A238H | -0.805
P377D | -1.06

Source: the supplement of paper PMC11908140
